# Measured values as given in patent US6899879.
# Molecular target: human CD40 antigen on the surface of human B cells (human) (UniProt P25942)
# Experiment: cell-based or functional assay
# UniProt P25942, sequence (P25942 21-277): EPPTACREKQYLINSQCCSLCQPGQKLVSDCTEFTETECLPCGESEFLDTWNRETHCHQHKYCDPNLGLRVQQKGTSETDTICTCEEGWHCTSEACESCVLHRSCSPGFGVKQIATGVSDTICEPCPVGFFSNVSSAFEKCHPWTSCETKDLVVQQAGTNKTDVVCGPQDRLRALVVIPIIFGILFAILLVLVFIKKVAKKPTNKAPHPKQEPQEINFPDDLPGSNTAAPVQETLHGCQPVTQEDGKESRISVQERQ
substance,measurement,value
anti-CD40 monoclonal antibody 5D12,50% of maximal inhibition of human T-cell induced immunoglobulin production by human B cells,30 ng/mL
same,concentration giving complete inhibition of EL4B5-induced human B-cell proliferation,10 ng/mL
same,half-maximal inhibition of EL4B5-induced human B-cell proliferation,1 ng/mL
same,percentage of inhibition of immunoglobulin production by human B cells,40 to 70%
